T1: recombinant human MICA extracellular domain recombinant-His protein (MICA*001 allele) (human, UniProt Q29983 24-297)
T1 construct: also called MICA*001-His; MICA-His; not shown: His tag
T1 sequence: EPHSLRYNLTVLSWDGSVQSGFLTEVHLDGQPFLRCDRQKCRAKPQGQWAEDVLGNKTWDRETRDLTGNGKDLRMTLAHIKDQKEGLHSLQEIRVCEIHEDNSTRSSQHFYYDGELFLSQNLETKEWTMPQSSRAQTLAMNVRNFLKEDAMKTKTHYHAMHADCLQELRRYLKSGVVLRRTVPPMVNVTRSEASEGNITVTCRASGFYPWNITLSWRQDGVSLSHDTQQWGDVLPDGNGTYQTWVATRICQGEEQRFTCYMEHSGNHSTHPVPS

T2: MICA*008 expressed at the cell surface (human, UniProt Q29983 24-297)
T2 construct: also called C1R-MICA*008; C1R-MICA*08
T2 chain: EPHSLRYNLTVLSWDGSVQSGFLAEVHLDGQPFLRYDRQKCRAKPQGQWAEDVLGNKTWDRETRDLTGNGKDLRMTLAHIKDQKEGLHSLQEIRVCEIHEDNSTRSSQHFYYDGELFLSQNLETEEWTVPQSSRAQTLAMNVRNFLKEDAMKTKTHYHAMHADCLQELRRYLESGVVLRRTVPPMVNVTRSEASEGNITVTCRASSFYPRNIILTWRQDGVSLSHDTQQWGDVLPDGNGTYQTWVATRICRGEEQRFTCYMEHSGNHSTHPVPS

T3: MICA*004 expressed at the cell surface (human, UniProt Q29983 24-297)
T3 construct: also called C1R-MICA*004; C1R-MICA*04
T3 chain: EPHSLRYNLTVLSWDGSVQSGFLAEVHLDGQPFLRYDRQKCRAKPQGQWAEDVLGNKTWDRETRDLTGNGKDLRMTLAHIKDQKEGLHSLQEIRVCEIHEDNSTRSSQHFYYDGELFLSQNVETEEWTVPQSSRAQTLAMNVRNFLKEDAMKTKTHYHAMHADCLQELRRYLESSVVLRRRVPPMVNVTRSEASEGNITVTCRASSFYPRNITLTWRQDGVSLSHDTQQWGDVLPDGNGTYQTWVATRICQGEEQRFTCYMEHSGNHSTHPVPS

T4: MICA*007 expressed at the cell surface (human, UniProt Q29983 24-297)
T4 construct: also called C1R-MICA*007; C1R-MICA*07
T4 chain: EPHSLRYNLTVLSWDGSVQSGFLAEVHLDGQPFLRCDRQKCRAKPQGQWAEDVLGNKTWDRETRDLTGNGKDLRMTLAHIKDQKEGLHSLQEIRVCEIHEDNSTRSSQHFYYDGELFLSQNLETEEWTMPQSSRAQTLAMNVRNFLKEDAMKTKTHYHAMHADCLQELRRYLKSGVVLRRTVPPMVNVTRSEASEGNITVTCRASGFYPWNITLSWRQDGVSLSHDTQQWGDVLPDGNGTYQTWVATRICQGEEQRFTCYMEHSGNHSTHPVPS

T5: MICA*001 expressed at the cell surface (human, UniProt Q29983 24-297)
T5 construct: the protein on cells also has its transmembrane and cytoplasmic parts (Genbank AAB41060); also called C1R-MICA*001; C1R-MICA*01
T5 sequence: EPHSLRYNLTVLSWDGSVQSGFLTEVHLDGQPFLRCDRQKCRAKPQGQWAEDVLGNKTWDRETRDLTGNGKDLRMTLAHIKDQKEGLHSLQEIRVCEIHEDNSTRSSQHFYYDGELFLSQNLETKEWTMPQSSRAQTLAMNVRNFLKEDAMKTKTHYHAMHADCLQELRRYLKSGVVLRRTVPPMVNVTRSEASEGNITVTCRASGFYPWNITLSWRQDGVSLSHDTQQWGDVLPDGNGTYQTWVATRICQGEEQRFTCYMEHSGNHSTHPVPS

T6: MICA*001-BirA (human, UniProt Q29983 24-297)
T6 construct: also called MICA-BirA; MICA*01-BirA; not shown: BirA tag
T6 sequence: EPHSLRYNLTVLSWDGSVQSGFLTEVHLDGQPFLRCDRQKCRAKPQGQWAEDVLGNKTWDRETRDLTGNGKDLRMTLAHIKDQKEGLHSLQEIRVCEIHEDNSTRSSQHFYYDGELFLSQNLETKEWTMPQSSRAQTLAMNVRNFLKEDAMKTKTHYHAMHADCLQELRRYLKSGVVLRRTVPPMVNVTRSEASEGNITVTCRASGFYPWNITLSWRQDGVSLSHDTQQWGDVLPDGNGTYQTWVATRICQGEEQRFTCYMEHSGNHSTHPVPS

T7: MICB-Fc (R&D Systems 1599-MB) (human, UniProt Q29980 23-298, limits assumed)
T7 construct: Bought; also called human MICB-Fc; not shown: Fc of the bought fusion protein
T7 sequence: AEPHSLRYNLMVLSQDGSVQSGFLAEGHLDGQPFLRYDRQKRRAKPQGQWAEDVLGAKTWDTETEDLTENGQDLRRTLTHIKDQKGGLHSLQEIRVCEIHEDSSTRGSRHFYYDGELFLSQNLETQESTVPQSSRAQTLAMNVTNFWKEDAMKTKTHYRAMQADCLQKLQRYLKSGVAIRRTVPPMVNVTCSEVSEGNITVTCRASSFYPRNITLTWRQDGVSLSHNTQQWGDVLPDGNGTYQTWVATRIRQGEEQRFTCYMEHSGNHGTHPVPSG


Tests used:
[1] = biological target: T1, recombinant human MICA extracellular …; test: SPR (Biacore T100), monovalent affinity
[2] = biological target: T1, recombinant human MICA extracellular …; test: SPR (Biacore T100), bivalent mean KD at pH 7.4, MICA*001-His on NTA chip, antibody injected
Procedure: The binding of 6E4, 20C6 and 16A8 to either recombinant human MICA extracellular domain recombinant protein monomers or dimers (MICA*019 allele-Fc protein or MICA*001-His protein) as well as other NKG2D ligands MICB and ULBP1-2 was analyzed by Surface Plasmon Resonance (SPR) using a Biacore T100 apparatus to obtain monovalent and bivalent affinity, respectively.
Each cycle consisted of three steps. Firstly, the NTA chip was activated with NiSO₄ (500 mM). Secondly, the MICA-His protein (diluted to 10 μg/ml in running buffer HBS-P) was immobilized onto the surface via a 2 min injection at a constant flowrate of 10 μL/min. Then the antibody was injected over the immobilized antigen for 2 min at the flow rate of 40 μl/min. Subsequently, the running buffer was injected for 5 min at 40 μl/min for antibody dissociation analysis. After each cycle, the surface was regenerated by a 60s injection of 0.5M EDTA, pH 8.3 to completely strip the surface of the remaining antigen and antibody. The resulting sensorgrams were analyzed by global fitting using the appropriate model.

[3] = biological target: T2, MICA*008 expressed at the cell surface; test: flow cytometry on C1R transfectant cells, 4-parameter logistic fit
Procedure: (§1) The binding of antibodies obtained from the first, second and third immunization series (including CHG1-M-MIA-19E9, CHG1-M-MIA-9C10, CHG1-M-MIA-6E4, CHG1-M-MIA-20C6, CHG1-M-MIA-16A8, CHG1-M-MIA-12A10, CHG1-M-MIA-10A7, CHG1-M-MIA-18E8, CHG1-M-MIA-10F3, CHG1-M-MIA-15F9 and CHG1-M-MIA-14B4) were tested for binding to MICA-expressing CR1 transfectant cells C1R-MICA*001, C1R-MICA*004, C1R-MICA*007 and C1R-MICA*008 (Pr. A. Steinle, Eberhard-Karls University Tuebingen, Germany) described in Salih et al. (2003) Blood 102(4): […]. Binding was analyzed by flow cytometry.
(§2) Cells were harvested and stained in PBS 1×/BSA 0.2%/EDTA 2 mM buffer during 30 minutes at 4° C. using a dose-range of the anti-MICA mAbs. After two washes in staining buffer, cells were stained for 30 min at 4° C. with mouse anti-human IgG1-PE monoclonal antibodies (1/11). After two washes, stainings were acquired on a BD FACS Canto II and analyzed using the FlowJo software.
(§3) Antibodies CHG1-M-MIA-19E9, CHG1-M-MIA-9C10, CHG1-M-MIA-6E4, CHG1-M-MIA-20C6, CHG1-M-MIA-12A10, CHG1-M-MIA-10A7, CHG1-M-MIA-18E8, CHG1-M-MIA-10F3, and CHG1-M-MIA-15F9 bound to each of the C1R-MICA*001, C1R-MICA*004, C1R-MICA*007 and C1R-MICA*008 cells (see FIG. 1A for antibodies CHG1-M-MIA-19E9, CHG1-M-MIA-9C10, CHG1-M-MIA-6E4, CHG1-M-MIA-20C6, CHG1-M-MIA-12A10, CHG1-M-MIA-10F3, and FIG. 1B for antibodies, CHG1-M-MIA-18E8, CHG1-M-MIA-15F9, CHG1-M-MIA-10A7). […] EC50 values are shown in Table C in μg/ml (calculated using a 4-parameter logistic fit).

[4] = biological target: T3, MICA*004 expressed at the cell surface; test: as above
Procedure: as §1, §2, §3

[5] = biological target: T4, MICA*007 expressed at the cell surface; test: as above
Procedure: as §1, §2, §3

[6] = biological target: T5, MICA*001 expressed at the cell surface; test: as above
Procedure: as §1, §2, §3

[7] = biological target: T6, MICA*001-BirA; test: SPR single cycle kinetics, monovalent mean KD at pH 7.4, antibody captured on Protein-G chip, MICA-BirA injected
Procedure: For monovalent affinity measurement, chimeric anti-MICA antibodies were captured onto a Protein-G chip.
Affinities were determined using single cycle kinetics (SCK). SCK cycles were as follows: Successive 120s injections at 30 μl/min of 5 serial dilutions (0.01 to 100 nM) of MICA-His or MICA-BirA in ascending order (or of buffer for the blank injections to be subtracted during the analysis). After the last concentration is injected, complex is left to dissociate for 600s before regeneration by a 10s injection of appropriate regeneration buffer at 40 μl/min. After the regeneration, chip is left to stabilise for 60s in running buffer. Curves are fitted using Biacore T100 Evaluation software.

[8] = biological target: T7, MICB-Fc (R&D Systems 1599-MB); test: SPR, antibody injected over immobilized MICB-Fc
Procedure: For cross-binding study, the human ULBP-1-Fc (R&D systems*), MICB-Fc (*), ULBP-2-Fc (*) and ULBP-3-Fc (*) recombinant proteins were covalently immobilized respectively on the flow cell one to four of a CM5 sensorchip. Anti-MICA antibodies (at a constant concentration of 10 μg/ml) were injected for 2 minutes at a flow rate of 10 μl/min onto the four flow cells in parallel. After each cycle, Sensorchip was regenerated by a five second injection of appropriate regeneration buffer.

Row | Kd [1] [nM] | Kd [2] [nM] | EC50 [3] [µg/mL] | EC50 [4] [µg/mL] | EC50 [5] [µg/mL] | EC50 [6] [µg/mL] | Kd [7] [nM] | binding result [8] | Binder
1 | 6.5 | 0.33 | – | – | – | – | – | – | biotin-conjugated mouse antibody 20C6 (antibody, V domains shown, also called 20C6 (mouse)) VH: QITLKESGPGILKPSQTLSLTCSFSGFSLSTSGMGVGWIRQPSGKGLEWLAHIWWDDDKYYNPSLKSQLTISKDTSRNQVFLRITSVDTADTATYYCARRTQGYFDYWGQGTTLTVSS VL: DIVMTQSPATLSVTPGDRVSLSCRASQSISDYLHWYQQKSHESPRLLIKYASQSISGIPSRFSGSGSGSDFTLSINSVEPEDVGVYYCQNGHSFPWTFGGGTKLEIK
2 | – | 0.00062 | – | – | – | – | – | – | biotin-conjugated mouse antibody 9C10 (antibody, V domains shown, also called 9C10 (mouse)) VH: QVQLQQPGAELVRPGTSVNLSCKASGYSFTRYWMNWVKQRPGQGLEWIGMIHPSDSETRLNQKFKDKATLTVDKSSSTAYMQLSSPTSEDSAVYYCGYGNFFYVMDYWGQGTSVTVSS VL: DILLTQSPAILSVSPGERVSFSCRASQSIGTSIHWYQQRTNGSPRLLIKFASESISGIPSRFSGSGSGTDFTLNINSVESEDIADYYCQQSNFWPFTFGSGTKLEVK

The remaining lines, values behind:

Row | Binder | Kd [1] [nM] | Kd [2] [nM] | EC50 [3] [µg/mL] | EC50 [4] [µg/mL] | EC50 [5] [µg/mL] | EC50 [6] [µg/mL] | Kd [7] [nM] | binding result [8]
3 | biotin-conjugated mouse antibody 6E4 (antibody, V domains shown, also called 6E4 (mouse)) VH: EVQLVESGGALVKPGGSLKLSCAASGFTFSYYAMSWVRQTPEKRLEWVATISRGGNYIYYTDSVKGRFTISRDNAKNTLYLQMTSLRSEDTAMFYCASISDYDGAWLAYWGQGTLVTV VL: DVLMTQTPLSLPVSLGDQASISCRSSQSIIHTNGNTYLEWYLQKPGQSPKLLIYKISNRFSGVPDRFSGSGSGTDFTLKISRVEAEDLGVYYCFQGSHVPWTFGGGTKLEIK | 2 | 0.031 | – | – | – | – | – | –
4 | CHG1-M-MIA-12A10 (antibody, human IgG1, V domains shown, the VH entry ends with ASTK) VH: QVQLQQSGADLVRPGASVRLSCRASGYSFTNYWMNWVKQRPGQGLEWIGMIHPSDSETRLNQKFKDKATLTVDKSSNTAYMQLSSPTSEDSAIYYCARDDFFTMDYWGQGTSVTVSS VL: DILLTQSPAILSVSPGERVSFSCRASQNIVTSIHWYQQSTNGSPRLLIKYASESISGIPSRFSGSGSGTDFTLTINSVESEDVADYYCQQSNIWPLTFGAGTKLELK | – | – | 0.25 | 0.26 | 1.43 | 1.3 | 53 | no binding (tested: 10 µg/ml)
5 | CHG1-M-MIA-14B4 (antibody, V domains shown, the VH entry ends with ASTK) VH: QVQLQQPGAELVRPGASVKLSCKASGYSFTSYWMNWMKQRPGQGLEWIGMIHPSDSETRLNQKFKDKATLTVDKSSSTAYMQLNSPTSEDSAVYYCAREMGPYTLDYWGQGTSVTVSS VL: DILLTQSPAILSVSPGARVSFSCRASQNIDTSIHWYQQRTNGSPRLLIKYASESISGIPSRFSGSGSGTDFTLSINSVESEDIADYYCQQSNYWPLTFGAGTKLELK | – | – | 0.3 | 0.24 | – | 12.7 | – | no binding (tested: 10 µg/ml)

— patent US20200299380A1 (published 2020)
